Test results published in PMC6101544.

Target: DNA polymerase beta (pol beta), [13CH3-Met,13CH3-Ile] labelled (UniProt P06746 1-335)
Experiment: NMR 1H-13C HMQC chemical shift perturbation, methyl-TROSY CPMG; binary complex; 5 mM MgCl2; ~175 uM pol beta, 10% excess DNA; D2O buffer: 50 mM Tris-d11 pH 7.6, 150 mM KCl, 5 mM MgCl2 (none for apoenzyme), 1 mM CDTA, 1 mM DTT, 0.1 mM AEBSF, 0.04% NaN3, 50 uM DSS; 35 C for assignment of

Binder: GGCGAAGCCTGGTGCGAAGCACC (structured_DNA) [1-nt-gapped double hairpin DNA (templating dT in gap)]
- binding result: binds
